Target: coreTFIIH (7-subunit: XPB, XPD, p62, p52, p44, p34, p8);XPG (human;human) (UniProt P19447+P18074+P32780+Q92759+Q13888+Q13889+Q6ZYL4+P28715)
Assay: EMSA

| Sequence | binding signal (fold lower Kd than XPG alone) (cholesterol moiety at N (between S12 and S13), position 11 from ss/ds junction) | binding signal (fold lower Kd than XPG alone) (cholesterol moiety at N (between S10 and S11), position 4 from ss/ds junction) |
| --- | --- | --- |
| TTTTTTTTTTTTTTTTTTTTTTTTTTTTTNTTTTTTTTTTGCCTCGCTGCCGTCGCCA / TGGCGACGGCAGCGAGGC [Chol11] | 8 |  |
| TTTTTTTTTTTTTTTTTTTTTTTTTTTTTTTTTTTTNTTTGCCTCGCTGCCGTCGCCA / TGGCGACGGCAGCGAGGC [Chol4] |  | 7 |

From article PMC9943652
